Consider four molecules from US20220213198A1, “METHOD OF TREATMENT” (The Council of the Queensland Institute of Medical Research, priority 2019, published 2022).

Entries after “also recorded” stand apart in the source; their conditions may differ.

One experiment concerns MR1 / MAIT cells. The conditions noted are these: cited from earlier work; for effect on MAIT cell activation: background statement.
A further experiment concerns B16F10 melanoma cells. Description: B16F10 experimental lung metastasis model. It is filed as in vivo, mouse. As to the method:
FIG. 2. […] (A) The schematic and timeline of expanding MAIT cells from splenocytes derived from C57BL/6 WT mice with IL-2 and 5-OP-RU, for sorting and adoptive transfer into tumor-bearing mice. (B, C) Groups of WT or MR1^−/− or Rag2cγ^−/− mice (n=5-6/group) were injected i.v. with (B) 1×10^5 or (C) 1×10^4 B16F10 melanoma cells. In some groups, sorted MAIT or T conventional cells (cT) (non-MAIT αβ^+ T cells) (2×10^5 cells/mouse) from C57BL/6 (B) WT or (C) TCRδ^−/− mice were i.v. injected into the indicated groups of mice one day before tumor inoculation. (C) One group of mice received i.v injection of media alone as a control. (B, C) On day 14 relative to tumor cell inoculation, lungs were harvested and the metastatic burden was quantified by counting colonies on the lung surface. Data presented as mean±SEM. (D) B16F10 or LWT1 melanoma cells were stimulated in vitro with DMSO or 5-OP-RU (100 nM) for 4 hours before cell surface MR1 expression was determined by flow cytometry. Groups of C57BL/6 WT or MR1^−/− mice (n=5-6/group) were i.v. injected with (E) 1×10^5 B16F10 or (F) 5×10^5 LWT1 cells melanoma cells pulsed with DMSO or 5-OP-RU (100 nM, 4 hours). Fourteen days later relative to tumor cell inoculation, lungs were harvested and the metastatic burden was quantified by counting colonies on the lung surface. Data presented as mean±SEM. Experiments performed once for (B, C, F) and three times for (D, E) with one representative experiment shown. Significant differences between groups as indicated by crossbars were determined using a one-way ANOVA followed by Tukey's post-hoc test (B, E, F), *p<0.05, **p<0.01, ****p<0.0001
FIG. 5. […] (A) Generation of three independent B16F10 cell lines knocked out for MR1 using three different MR1 sgRNA. […] Empty vector transfected B16F10 cells were used as a positive control. (B, C) Groups of C57BL/6 WT, MR1^−/− or Rag2cγ^−/− mice (n=5-6/group) were i.v. injected with either (B) 1×10^5 B16F10 vector control cells or the indicated clone of B16F10 cells lacking MR1 (sgR1, sgR2, sgR3) or (C) 1×10^4 B16F10-MR1^KO cells (sgR3 clone). On day 14 relative to tumor cell inoculation, lungs were harvested and the metastatic burden was quantified by counting colonies on the lung surface. Data presented as mean±SEM. (D) Re-expression of GFP or GFP-MR1 expressing vector into B16F10-MR1^KO (sgR3 clone). MR1 surface expressions of these cells stimulated with or without 5-OP-RU were assessed by flow cytometry. (E) Groups of C57BL/6 WT mice (n=6/group) were i.v. injected with 1×10^5 B16F10-MR1^KO (sgR3 clone) transfected with empty GFP-expressing vector or MR1-GFP-expressing vector. (F) Groups of C57BL/6 WT or MR1^−/− mice were i.v. injected with parental B16F10 cells treated with vehicle (dd H2O) or AC-6-FP (10 μM, 18 hours). On day 14 relative to tumor cell injection, lungs were harvested and the metastatic burden was quantified by counting colonies on the lung surface. Data presented as mean±SEM. Experiments performed twice for (A-E) and once for (F). Significant differences between groups as indicated by crossbars were determined by a one-way ANOVA followed by Tukey's post-hoc test (A, F), or a Mann-Whitney test (C, E), *p<0.05, **p<0.01, ****p<0.0001.
FIG. 6. […] Groups of C57BL/6 WT or MR1^−/− mice (n=5-6/group) were i.v. injected with (A, B) 1×10^5 B16F10, (C) 1×10^5 parental B16F10 or 2×10^5 B16F10-MR1^KO (sgR3 clone) melanoma cells and (D) 5×10^5 LWT1 melanoma cells or s.c injected with (E) 1×10^6 MCA1956 fibrosarcoma or (F) 1×10^6 SM1WT1 melanoma cells on day 0.

Experiment [1] deals with T1, surface MR1 on mouse tumor cell lines (Mus musculus, UniProt Q8HWB0).
T1 construct: endogenous in cells
The conditions noted are these: stated as property of the ligand; cited from earlier work.

A further experiment addresses mouse MR1 (Mus musculus, UniProt Q8HWB0). Description: Anti-MR1 reactivity with mouse MR1. The format is binding. The conditions noted are these: flow cytometry antibody. The source says: (§1) MR1 mRNA transcripts are present in different tissues and cell lines from mice and humans. […] In contrast, whether mouse tumor cell lines express MR1 has not previously been examined. […] Basally, the level of MR1 was almost undetectable on the surface of all tumor cell lines examined (FIG. 2D). […] The kinetics of MR1 upregulation on B16F10 cells was similar to what was previously reported for human C1R cells (B-cell lymphoblastoid cell line) (McWilliam et al., 2016). […] Next, the impact of up-regulation of MR1 on B16F10 or LWT1 prior to i.v injection to WT or MR1−/− mice on the number of lung metastases was assessed.

The next experiment concerns the target human MR1 (Homo sapiens, UniProt Q95460). Description: Anti-MR1 reactivity with human MR1. The format is binding. The conditions noted are these: flow cytometry antibody.
Description: as §1
For orientation: Flow cytometry measures light scatter and fluorescence of single cells or particles in a stream.

Experiment [2] has as its target T2, mouse MR1 (MHC class I-related protein 1) (mouse, UniProt Q8HWB0 19-341).
T2 construct: whole, on cells; also called surface MR1
The experiment can be described thus: flow cytometry on mouse tumor cell lines with or without 5-OP-RU.
Description: as §1

The target in experiment [3] is T3, human MR1 (MHC class I-related protein 1) (human, UniProt Q95460 23-341).
T3 construct: The assays used endogenous MR1 of human cell lines (flow cytometry) and of FFPE tumor sections (IHC); no signal peptide limits are stated
The experiment can be described thus: flow cytometry; human cell lines with or without 5-OP-RU (data not shown).

Sequence of mouse MR1 (Q8HWB0 19-341): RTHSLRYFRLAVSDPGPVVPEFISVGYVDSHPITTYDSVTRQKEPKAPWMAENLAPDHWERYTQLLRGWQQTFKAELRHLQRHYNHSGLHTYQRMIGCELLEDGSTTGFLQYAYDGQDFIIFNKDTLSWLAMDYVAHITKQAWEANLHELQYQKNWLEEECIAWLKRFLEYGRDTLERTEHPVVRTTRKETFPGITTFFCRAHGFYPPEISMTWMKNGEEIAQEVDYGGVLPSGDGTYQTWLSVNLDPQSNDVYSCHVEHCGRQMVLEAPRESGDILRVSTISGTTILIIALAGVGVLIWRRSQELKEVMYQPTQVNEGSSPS
Sequence of mouse MR1 (P01887 21-119 partner): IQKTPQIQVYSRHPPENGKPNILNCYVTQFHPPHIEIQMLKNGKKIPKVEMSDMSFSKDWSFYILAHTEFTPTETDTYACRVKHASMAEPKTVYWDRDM
T2 sequence (Q8HWB0 19-341): as the sequence (Q8HWB0 19-341) above
T1 sequence (Q8HWB0 19-341): as above
T1 sequence (P01887 21-119 partner): as the sequence (P01887 21-119 partner) above
T3 sequence (Q95460 23-341 limits assumed): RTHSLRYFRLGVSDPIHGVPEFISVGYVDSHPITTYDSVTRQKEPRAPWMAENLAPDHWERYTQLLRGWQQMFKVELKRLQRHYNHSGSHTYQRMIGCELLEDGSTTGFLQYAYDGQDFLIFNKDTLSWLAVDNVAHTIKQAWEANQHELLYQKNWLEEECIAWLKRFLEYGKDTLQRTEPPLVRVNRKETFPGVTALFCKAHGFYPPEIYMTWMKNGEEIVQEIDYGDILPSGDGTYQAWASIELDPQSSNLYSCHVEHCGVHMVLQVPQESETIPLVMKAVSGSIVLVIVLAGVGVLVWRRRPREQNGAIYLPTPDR
Sequence of human MR1 (Q95460 23-341): as the sequence (Q95460 23-341 limits assumed) above
Sequence of human MR1 (P61769 21-119 partner): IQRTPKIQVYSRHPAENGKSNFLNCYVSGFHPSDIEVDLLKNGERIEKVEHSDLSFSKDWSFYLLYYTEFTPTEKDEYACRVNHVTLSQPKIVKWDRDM

In the case of `Nc1nc2ncc(C=O)nc2c(=O)[nH]1` [6-FP, 6-formylpterin], the “effect on MAIT cell activation” value with MR1 / MAIT cells is given as “inhibit MAIT cell activation”.
Take `CC(=O)Nc1nc2ncc(C=O)nc2c(=O)[nH]1` [AC-6-FP, acetyl 6-formylpterin]: the “number of lung metastases” value with B16F10 melanoma cells (WT mice injected with B16F10 pre-treated 10 μM 18 hours, vs vehicle-treated, day 14) is “decrease in metastases numbers”; with B16F10 melanoma cells (WT mice injected with B16F10 pre-treated 10 μM 18 hours, vs vehicle-treated, day 14, listed as Ac-6-FP), “dramatically reduced”. The MR1 expression result in experiment [1] was “upregulates MR1”. The “effect on MAIT cell activation” value in the experiment with MR1 / MAIT cells is “does not activate MAIT cells; also recorded: inhibit MAIT cell activation”.

B1: 26.5: anti-MR1 blocking antibody from hybridoma clone 26.5, IgG2a isotype; heavy chain SEQ ID NO: 4, light chain SEQ ID NO: 8 (antibody, listed as Mus musculus, V domains shown)
VH: MEWSRVFIFLLSITAGVHSQVQLQQSGTELVRPGTSVKVSCKASGYAFSNYLIEWIKQRPGQGLEWIGVINPGSGGISYNEKFKGKATLTADKSSSTAYMQLSSLTSEDSAVYFCARWGYLYYYTMDHWGQGTSVTVSS
VL: MKLPVRLLVLMFWIPASSSDVLMTQTPLSLPVSLGDQASISCRSSQSIVQGSGNTFLDWYLQKPGQSPKVLIYKVSNRFSGVPARFSGSGSGTDFTLKISRVEAEDLGVYYCFQGSHVPYTFGGGTKLEIK
For B1, the “number of lung metastases” value in the experiment on B16F10 melanoma cells (B16F10 tumor-bearing MR1-/- mice, antibody vs cIg) is on record as “no further decrease”. Besides, the B16F10 lung metastases result in the experiment on B16F10 melanoma cells (WT mice, 250 μg/mouse i.p. days -1, 0, 3 and 7, vs cIg, day 14) is “effectively suppressed lung metastases”. In the experiment on B16F10 melanoma cells (WT mice, 250 μg/mouse i.p., days -1, 0, 3 vs days -1, 0, 3 and 7), the “suppression of B16F10 lung metastases, three vs four doses” value is “more effective when four doses”. For the same molecule, the “reactivity with mouse MR1” value in the experiment with mouse MR1 was “cross-reacts with both mouse and human MR1”. Besides, the “reactivity with human MR1” value with human MR1 was “cross-reacts with both mouse and human MR1”. Besides, the “blocking of MAIT cell interaction with MR1” value in the experiment on MR1 / MAIT cells (stated as known) was “block MAIT cells from interacting with MR1”.

B2: anti-MR1 antibody 26.5 (antibody, V domains shown)
VH: QVQLQQSGTELVRPGTSVKVSCKASGYAFSNYLIEWIKQRPGQGLEWIGVINPGSGGISYNEKFKGKATLTADKSSSTAYMQLSSLTSEDSAVYFCARWGYLYYYTMDHWGQGTSVTVSS
VL: DVLMTQTPLSLPVSLGDQASISCRSSQSIVQGSGNTFLDWYLQKPGQSPKVLIYKVSNRFSGVPARFSGSGSGTDFTLKISRVEAEDLGVYYCFQGSHVPYTFGGGTKLEIK
B2: the binding result in experiment [2] and in experiment [3] was “binds” throughout.
